According to patent US20230279079A1:

Legend:
[1] = molecular target: spike glycoprotein of wild type SARS-CoV-2 virus (SARS-CoV-2) (UniProt P0DTC2); test: cell-based or functional assay
[2] = molecular target: RBD-VLP (SARS-CoV-2) (UniProt P0DTC2)

Substance | Neutralization by PRNT EC50 [1] [nM] | IC50 [2] [nM]
CR3022 (antibody) | 42 | 
VHH72-Fc |  | 2
